This passage reports KD1 (2:1 heterogenous ligand fit) and KD2 (2:1 heterogenous ligand fit) results from publication doi:10.1101/2025.09.29.679184.

Experiment [1] deals with N-terminally Avi-tagged Lotus SYMRK kinase 4D (Lotus japonicus). Description: BLI.
Experiment [2] addresses N-terminally Avi-tagged Lotus SYMRK kinase 4A (Lotus japonicus). The experiment is described as follows: BLI. Background: Biolayer interferometry detects binding as a change in optical thickness at a sensor tip.

As to “Lotus japonicus Early Phosphorylated Protein 1a (EPP1a) WT, purified (natural protein)”, the KD1 (2:1 heterogenous ligand fit) in experiment [1] was found to be 452 nM; in experiment [2], 2.2 µM. Besides, the KD2 (2:1 heterogenous ligand fit) was determined as 1 µM in experiment [1] and 6.4 µM in experiment [2].
